Measurements as given in patent US20040235002A1, “Multiplex screening assays” (Sangamo BioSciences, Inc., priority 2002, published 2004).

Key:
ERα and ERβ = conditions: Barkham et al. (1998) Molecular Pharmacology, 54:105-112; cited from earlier work
[1] = test system: ZFP757-ERalpha LBD (synthetic/human); test: cell_activity; conditions: AnxA8 mRNA, 100 nM 17beta-estradiol vs untreated, HEK293
[2] = test system: ZFP734-FXR LBD (synthetic/human); test: cell_activity; conditions: Kip2 mRNA, 100 nM CDCA vs untreated, HEK293
[3] = test system: ZFP1727-TRbeta LBD (synthetic/human); test: cell_activity; conditions: GRP mRNA, 100 nM T3, HEK293

## C[C@]12CC[C@@H]3c4ccc(O)cc4CC[C@H]3[C@@H]1CC[C@H]2O [17alpha-estradiol]
ERα and ERβ
  activation of ERα and ERβ as known from the literature: preferentially activates ERα

## CGGGCGGCTG (double strand) [anxA8 site (ZFP757)]
[1]
  activity: 12 fold

## GGGGCTGGGT (double strand) [kip2 site (ZFP734)]
[2]
  activity: 3.5 fold

## GGTGGGGAGG (double strand) [GRP site (ZFP1727)]
[3]
  activity: 14 fold
